T1: human RANKL (receptor activator of nuclear factor-kappa B ligand) (human, UniProt O14788 140-317, limits assumed)
T1 construct: also called OPGL
T1 sequence (looked up): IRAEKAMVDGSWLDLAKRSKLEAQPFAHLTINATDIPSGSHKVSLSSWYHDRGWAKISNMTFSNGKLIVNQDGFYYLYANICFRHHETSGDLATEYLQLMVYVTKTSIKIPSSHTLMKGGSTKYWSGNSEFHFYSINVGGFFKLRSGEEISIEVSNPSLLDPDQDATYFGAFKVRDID

T2: human TGF-β3 (human, UniProt P10600 301-412)
T2 sequence (looked up): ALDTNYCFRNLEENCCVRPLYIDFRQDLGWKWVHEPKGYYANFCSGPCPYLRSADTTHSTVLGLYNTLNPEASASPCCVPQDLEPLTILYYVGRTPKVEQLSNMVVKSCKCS

T3: human Activin A (human, UniProt A4D1W7 311-426, Activin A is a disulfide-linked homodimer of the inhibin beta A mature chain. One copy is given.)
T3 sequence: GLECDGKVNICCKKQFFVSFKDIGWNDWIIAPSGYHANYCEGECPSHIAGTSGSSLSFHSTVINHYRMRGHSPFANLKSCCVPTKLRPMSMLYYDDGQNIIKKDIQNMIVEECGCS


Columns and labels:
Experiment in all cases: BLI (Octet RED96), antagonist captured on biosensor, ligand in solution
[1] = molecular target: human TGF-β1 (human, UniProt P01137 279-390)
Protocol: (§1) Binding activities of individual bifunctional antagonists to human ligands or target proteins were measured by biolayer interferometry (BLI) using Octet RED96 (FortéBIO, Pall Corporation, USA). Binding analysis was performed by first capturing the polypeptide bifunctional antagonists to biosensors followed by two baseline steps in 1× kinetic buffer. The bifunctional antagonists-captured biosensors were then submerged in wells containing different concentrations of specific individual ligand, such as RANKL, Activin A, activin B, Activin AB, myostatin, TGF-β1, TGF-β2 or TGF-β3, for 6 min association followed by 6 min of dissociation time in 1× kinetic buffer. The bifunctional antagonists-captured sensors were also dipped in wells containing 1× kinetic buffer to allow single reference subtraction in order to compensate for the natural dissociation of captured bifunctional antagonists. The binding sensorgrams were collected using the 8-channel detection mode on the Octet RED96 biosensor. Data were acquired and analyzed using the data acquisition software v11.1 (FortéBIO, Pall Corporation, USA).

[2] = molecular target: T1, human RANKL (receptor activator of …)
Protocol: as §1

[3] = molecular target: T2, human TGF-β3
Protocol: as §1

[4] = molecular target: T3, human Activin A
Protocol: as §1

human TGF-β1, sequence (P01137 279-390 limits assumed): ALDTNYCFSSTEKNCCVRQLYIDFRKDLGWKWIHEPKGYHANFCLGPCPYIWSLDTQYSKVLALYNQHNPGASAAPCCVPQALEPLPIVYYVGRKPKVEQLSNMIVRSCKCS

Row | Kd [1] [nM] | Kd [2] [nM] | Kd [3] [nM] | Kd [4] [nM] | Binder
1 | ~2 | ~0.7 | ~0.3 | – | bispecific antibody A241 (bispecific antibody, human IgG2, kappa) heavy: QVQLVQSGAEVKKPGSSVKVSCKASGYTFSSNVISWVRQAPGQGLEWMGGVIPIVDIANYAQRFKGRVTITADESTSTTYMELSSLRSEDTAVYYCASTLGLVLDAMDYWGQGTLVTVSSGGGGSGGGGSGGGGSEVQLLESGGGLVQPGGSLRLSCAASGFTFSSYAMSWVRQAPGKGLEWVSGITGSGGSTYYADSVKGRFTISRDNSKNTLYLQMNSLRAEDTAVYYCAKDPGTTVIMSWFDPWGQGTLVTVSSASTKGPSVFPLAPCSRSTSESTAALGCLVKDYFPEPVTVSWNSGALTSGVHTFPAVLQSSGLYSLSSVVTVPSSNFGTQTYTCNVDHKPSNTKVDKTVERKCCVECPPCPAPPVAGPSVFLFPPKPKDTLMISRTPEVTCVVVDVSHEDPEVQFNWYVDGVEVHNAKTKPREEQFNSTFRVVSVLTVVHQDWLNGKEYKCKVSNKGLPAPIEKTISKTKGQPREPQVYTLPPSREEMTKNQVSLTCLVKGFYPSDIAVEWESNGQPENNYKTTPPMLDSDGSFFLYSKLTVDKSRWQQGNVFSCSVMHEALHNHYTQKSLSLSPGK light: ETVLTQSPGTLSLSPGERATLSCRASQSLGSSYLAWYQQKPGQAPRLLIYGASSRAPGIPDRFSGSGSGTDFTLTISRLEPEDFAVYYCQQYADSPITFGQGTRLEIKGGGGSGGGGSGGGGSEIVLTQSPGTLSLSPGERATLSCRASQSVRGRYLAWYQQKPGQAPRLLIYGASSRATGIPDRFSGSGSGTDFTLTISRLEPEDFAVFYCQQYGSSPRTFGQGTKVEIKRTVAAPSVFIFPPSDEQLKSGTASVVCLLNNFYPREAKVQWKVDNALQSGNSQESVTEQDSKDSTYSLSSTLTLSKADYEKHKVYACEVTHQGLSSPVTKSFNRGEC
2 | – | ~0.001 | – | ~0.3 | bispecific antibody A237 (bispecific antibody) heavy: QVQLVQSGAEVKKPGASVKVSCKASGYTFTSYGLSWVRQAPGQGLEWMGWIIPYNGNTNSAQKLQGRVTMTTDTSTSTAYMELRSLRSDDTAVYFCARDRDYGVNYDAFDIWGQGTMVTVSSGGGGSGGGGSGGGGSEVQLLESGGGLVQPGGSLRLSCAASGFTFSSYAMSWVRQAPGKGLEWVSGITGSGGSTYYADSVKGRFTISRDNSKNTLYLQMNSLRAEDTAVYYCAKDPGTTVIMSWFDPWGQGTLVTVSSASTKGPSVFPLAPCSRSTSESTAALGCLVKDYFPEPVTVSWNSGALTSGVHTFPAVLQSSGLYSLSSVVTVPSSNFGTQTYTCNVDHKPSNTKVDKTVERKCCVECPPCPAPPVAGPSVFLFPPKPKDTLMISRTPEVTCVVVDVSHEDPEVQFNWYVDGVEVHNAKTKPREEQFNSTFRVVSVLTVVHQDWLNGKEYKCKVSNKGLPAPIEKTISKTKGQPREPQVYTLPPSREEMTKNQVSLTCLVKGFYPSDIAVEWESNGQPENNYKTTPPMLDSDGSFFLYSKLTVDKSRWQQGNVFSCSVMHEALHNHYTQKSLSLSPGK light: not shown

From patent US20230391880A1 (published 2023)
